Format in all cases: cell-based
For experiment [1], the target named is T1, LGR8 (RXFP2) (Homo sapiens, UniProt Q8WXD0). Nature of the experiment: pCRE-β-gal reporter assay in Forskolin-treated CHO-K1 cells transiently transfected with LGR8. On the set-up: expressed in transfected cells; host or cells: CHO-K1 (transient). To be noted: 5 uM Forskolin, FIG. 8A-B. As for the experimental part: The ability of P74C13V (P74) (SEQ ID NO: 10) and P59C13V (P59) and P59C13V-Amide (P59-Amide) (SEQ ID NO: 6 and 5 respectively) to activate LGR7 (RXFP1) and LGR8 (RXFP2) was further tested by testing the ability of these peptides to influence cAMP activity induced by 5 μM Forskolin in CHO-K1 cells transiently transfected with LGR7/pCRE-β-gal or LGR8/pCRE-β-gal as compared to H2 relaxin and INSL3 respectively.
LGR8 transfected CHO-K1 cells were treated with 5 uM of Forskolin to stimulate cAMP. The cells were then challenged with increasing doses of INSL3 (as positive control), P74C13V (P74) (SEQ ID NO: 10), P59C13V with (P59-Amide) and without (P59) amide (SEQ ID NO: 5 and 6, respectively) and P59S-Amide (P59-S) (SEQ ID NO: 1). […] The results are presented as a percentage of Forskolin activity at various concentrations of the peptide (logarithmic scale). Each point represents three unrelated repeats for each experiment.

In experiment [2] the target is T1, LGR8 (RXFP2). Nature of the experiment: cAMP accumulation (Hit Hunter cAMP kit) in CHO-K1 cells transiently transfected with LGR8. Also on record: expressed in transfected cells; host or cells: CHO-K1 (transient). To be noted: for cAMP inhibition (Gi) effect: 1 uM, LGR8 CHO-K1 cells pre-treated with 10 uM Forskolin, FIG. 1; for change in cAMP, dose response, higher concentrations: concentrations higher than 100 nM (up to 10 uM); for change in cAMP, dose response, higher concentrations / change in cAMP, dose response, lower concentrations: 20 uM Forskolin, FIG. 2; for change in cAMP, dose response, lower concentrations: concentrations lower than 100 nM. How it is done:
The ability of Peptides to affect cAMP concentration was examined in CHO-K1 cells transiently transfected with LGR7 (RXFP1) or LGR8 (RXFP2). The experiment measured cAMP concentration in response to the addition of the peptides.
(§1) LGR7 (RXFP1) or LGR8 (RXFP2) were transiently transfected into CHO-K1 cells as follows: Cells (12 million) were plated into T75 flasks on the day preceding transfection. Cells were transfected with a GPCR DNA and Gα16 using a lipid technique according to the manufacturer's recommendation. Cells were transfected for 5 hours, then re-plated into 96-well dishes (60,000 cells per well) and grown overnight. Transfected cells were plated into 24 wells of a 96-well plate. Cells were pre-treated with 0.5 mM IBMX (stimulation buffer) for 10 min at 37° C., then stimulated with either a positive control (Relaxin 2) or a candidate peptide (for Gs functional examination), followed by stimulation or a preincubation with 10 μM forskolin (for Gi functional examination). Following a 20 minutes stimulation by incubation with 1 μM of either positive control or the tested peptides, either with or without forskolin, intracellular cAMP was assayed using the Hit Hunter cAMP kit (DiscoveRx Corporation) according to the manufacturer's recommended protocol. Data was converted to nmol of cAMP by running a standard cAMP curve.
Relaxin was used as a positive control. cAMP level was elevated by pre-treatment with forskolin.
The transfected CHO-K1 cells were treated with 10 uM of Forskolin (Applied cell sciences (ACS)) for 10 minutes and then challenged with 1 uM of H2 Relaxin (ACS) (as a positive control), 1 uM of Peptide P59C13V (P59) (SEQ ID NO: 6), and Peptide P74C13V (P74) (SEQ ID NO: 10).
A dose response effect of P59C13V (P59) and P74C13V (P74) on CHO-K1 cells transiently transfected with LGR8 (RXFP2) was further examined (Method as above). CHO-K1 cells transiently transfected with LGR8 (RXFP2) were treated with 20 uM of Forskolin for 10 minutes and then challenged with either INSL3 (as a positive control), P59C13V (SEQ ID NO: 6) or P74C13V (P74) (SEQ ID NO: 10) at increasing concentrations from 1 nM to 10 uM.
In general terms: Changes in cAMP serve as a functional read-out for many G protein-coupled receptors.

Experiment [3] addresses T2, LGR4 (Homo sapiens, UniProt Q9BXB1).
T2 construct: expressed in transfected cells; host or cells: CHO-K1 (transient)
Kind of experiment: cAMP accumulation in CHO-K1 cells transiently transfected with LGR4. To be noted: 1 uM, pre-treatment with Forskolin, FIG. 3C. As for the experimental part:
[The procedure below names another target; the source says it served here with some conditions changed.] as §1

The target of experiment [4] is T1, LGR8 (RXFP2). Nature of the experiment: pCRE-β-gal reporter assay in HEK-293T cells expressing LGR8. On the set-up: expressed in transfected cells. The conditions noted are these: LGR8/pCRE-β-gal HEK-293T; for CRE activation pattern: 0.01 nM-1 μM, FIG. 6A-B. How it is done: In order to further test the activity of P59C13V (P59) (SEQ ID NO: 6), P59S-Amide (P59S) (SEQ ID NO: 1), P59C13V-Amide (P59 Amide) (SEQ ID NO: 5) and P74C13V (P74) (SEQ ID NO: 10), the following assay was performed. The assay was done to assess the ability of P59C13V (P59) (SEQ ID NO: 6), P59S-Amide (P59S) (SEQ ID NO: 1), P59C13V-Amide (P59Amide) (SEQ ID NO: 5) and P74C13V (P74) (SEQ ID NO: 10) peptides to replace H2 Relaxin or INSL3 activity in stable HEK-293T cell lines expressing the LGR7 (RXFP1) or the LGR8 (RXFP2) receptors, respectively, by assessment of the ability of these peptides to increase cAMP activity in cell lines expressing LGR7 (RXFP1) or LGR8 (RXFP2) respectively, together with pCRE-β-gal. The pCRE-β-gal assay is a standard and well established assay at the Howard Florey Institute (Melbourne, Australia) (Halls M L, Bathgate R A, Summers R J.—Comparison of signaling pathways activated by the relaxin family peptide receptors, RXFP1 and RXFP2, using reporter genes. J Pharmacol Exp Ther. 2007 January; 320(1):281-90.)
The ability of P59C13V (P59) (SEQ ID NO: 6), P59S-Amide (P59S) (SEQ ID NO: 1), P59C13V-Amide (P59Amide) (SEQ ID NO: 5) and P74C13V (P74) (SEQ ID NO: 10) to influence cAMP activity in HEK-293T LGR7/pCRE-β-gal stable or LGR8/pCRE-β-gal transfected cells was tested in parallel to H2 relaxin and INSL3 respectively, according to the protocol described in Halls M L, et al., J Pharmacol Exp Ther. 2007 January; 320(1):281-90.
The experiment was repeated at least three times. The following concentrations of each peptide were tested: 0.01 nM, 0.1 nM, 1 nM, 10 nM, 100 nM, 1 μM.
The results are presented as a percentage of INSL3 activity in LGR8/pCRE-β-gal transfected HEK-293T cells as a function of the concentration (Represented in Log [M]).
(Reporter assays use an easily measured gene product as a stand-in for the process of interest.)

Entries after “also recorded” stand apart in the source; their conditions may differ. No end group written: not given here.

T1 sequence (Q8WXD0 whole entry): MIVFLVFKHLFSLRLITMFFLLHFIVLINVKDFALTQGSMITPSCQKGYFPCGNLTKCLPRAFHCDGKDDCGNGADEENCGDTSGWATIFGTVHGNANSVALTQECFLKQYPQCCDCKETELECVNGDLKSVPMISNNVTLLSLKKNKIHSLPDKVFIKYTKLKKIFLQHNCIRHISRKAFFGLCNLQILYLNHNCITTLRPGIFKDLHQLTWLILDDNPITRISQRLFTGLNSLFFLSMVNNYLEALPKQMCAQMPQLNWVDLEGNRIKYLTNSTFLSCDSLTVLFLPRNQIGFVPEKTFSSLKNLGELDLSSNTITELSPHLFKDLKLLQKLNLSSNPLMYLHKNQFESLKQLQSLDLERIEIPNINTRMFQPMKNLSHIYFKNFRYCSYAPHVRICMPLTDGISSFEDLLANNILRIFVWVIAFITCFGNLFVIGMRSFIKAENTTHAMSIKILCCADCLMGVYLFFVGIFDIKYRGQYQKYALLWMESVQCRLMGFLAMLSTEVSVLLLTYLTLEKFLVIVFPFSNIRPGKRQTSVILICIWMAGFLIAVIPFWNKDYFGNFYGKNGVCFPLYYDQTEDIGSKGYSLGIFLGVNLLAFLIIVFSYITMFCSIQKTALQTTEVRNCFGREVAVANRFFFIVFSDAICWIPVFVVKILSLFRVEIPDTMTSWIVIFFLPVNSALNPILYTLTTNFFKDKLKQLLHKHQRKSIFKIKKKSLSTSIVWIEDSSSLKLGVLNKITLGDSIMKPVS

Regarding “GQKGQVGPPGAAVRRAYAAFSV [Peptide P59C13V]”, in experiment [1], the “CRE activation pattern relative to Forskolin” value is listed as “dual activation pattern effect”. Also, in experiment [2], the “cAMP inhibition (Gi) effect” value is recorded as “clear cAMP inhibition (Gi) effect”; the “change in cAMP, dose response, higher concentrations” value was “slight increase (Gs effect)”; the “change in cAMP, dose response, lower concentrations” value is “slight decrease in cAMP”. Further, the “Gi effect (decrease in cAMP accumulation)” value in experiment [3] is “slight yet statistically significant Gi effect; also recorded: slight Gi activation”. Further, the “CRE activation relative to INSL3 activity” value in experiment [4] (FIG. 6B) is ~25 % of INSL3.
With “GQKGQVGPPGAAVRRAYAAFSVGRRAYAAFSV-OH [Peptide P74C13V]”, the “CRE activation pattern relative to Forskolin” value in experiment [1] is given as “bell-shaped activation pattern”. In experiment [2], the “cAMP inhibition (Gi) effect” value is “clear cAMP inhibition (Gi) effect”; the “change in cAMP, dose response, higher concentrations” value is on record as “no effect”; the “change in cAMP, dose response, lower concentrations” value was “slight increase in cAMP”. Moreover, in experiment [3], the “Gi effect (decrease in cAMP accumulation)” value is listed as “slight yet statistically significant Gi effect; also recorded: slight Gi activation”. The CRE activation pattern result in experiment [4] is “bell shaped response”.
With “AYAAFSV-Amide (AYAAFSV-NH2) [Peptide P59-S-Amide]”, the CRE activation pattern result in experiment [4] is recorded as “less pronounced”.
Regarding “GQKGQVGPPGAAVRRAYAAFSV-Amide (GQKGQVGPPGAAVRRAYAAFSV-NH2) [P59C13V-Amide]”, in experiment [1], the “CRE activation pattern relative to Forskolin” value is given as “slight activation pattern”. In experiment [4], the CRE activation pattern result is listed as “very weak effect”.
Regarding “H2 Relaxin: H2 Relaxin (ACS), positive control, known ligand of LGR7 (RXFP1) [reference compound]”, in experiment [2], the “cAMP inhibition (Gi) effect” value is “affected only the LGR7 (RXFP1) receptor”.

Source of the values: US8492329B2, “Bioactive peptides and methods of using same” (Compugen Ltd., priority 2007, dated 2013).
